Measured values from article PMC3870462 (Chemistry & biology, 2013).
Read-outs that look alike come from different tables or passages of the source.

Tests used:
[1] = target: CurK-CurL ^ACPddK-G3SG3S-ddL^KS (Moorea producens)
[2] = target: CurK ACP-dd (Moorea producens); assay: fluorescence polarisation
[3] = target: CurL ACP-dd (Moorea producens); assay: fluorescence polarisation
[4] = target: CurG ACP-dd (Moorea producens); assay: fluorescence polarisation
[5] = target: PikAIIID-^ACPddG (not stated | Moorea producens)
[6] = target: CurH ACP-dd (Moorea producens); assay: fluorescence polarisation
[7] = target: Avitag-CurG ACP-dd (Moorea producens); assay: BLI
[8] = target: CurK ACP-dd E2224R (Moorea producens); assay: fluorescence polarisation
[9] = target: CurK ACP-dd E2224R (Moorea producens); assay: fluorescence polarisation; remark: listed apart in the source
[10] = target: CurL dd^KS (Moorea producens); assay: crystal structure
[11] = target: CurI dd-KS-AT dimer (Moorea producens); assay: SEC
crystal structure = target: the molecule itself; assay: crystal structure
[12] = target: the molecule itself

For CurK-CurL ^ACPddK-G3SG3S-ddL^KS, the stoichiometry N [1] was 2.

For CurM dd-KS-AT (domain or fragment), the Kd [2] was 52 µM and the Kd [3] was 5.4 µM.

With “CurH dd-KS-AT lacking helix αA and the dd^KS loop (domain or fragment)” the Kd [4] was 117 µM.

Work on ddH^KS-PikAIV (enzyme) yielded a 10-deoxymethynolide (10-dml) produced, percent of wild type PikAIII/PikAIV [5] of 188%, a narbonolide (nbl) produced, percent of wild type PikAIII/PikAIV [5] of 70% and a pentaketide substrate consumed in the PikAIII/PikAIV two-module reaction [5] of 86%.

With CurI dd-KS-AT (domain or fragment) the Kd [6] was 20.5 µM.

CurH dd-KS-AT (domain or fragment) gave a Kd [7] of 16.5 µM, a Kd [2] of 23.7 µM and a Kd [8] of 9.2 µM. The Kd [4] was 15.7 µM and the Kd [9] was 10 µM.

With CurL dd^KS (domain or fragment) the stoichiometry N [10] was 2.

“CurI dd-KS-AT dimer (domain or fragment)” showed a stoichiometry N [11] of 2 and a Kd [6] of 9.4 µM.

B1: CurL dd-KS-AT (domain or fragment, Moorea producens)
chain: MNLKQEQEKEQSLSALQRALIALKDARSKLEKYETQSKEPIAIIGMSCRFPGGVDSPESFWQLLNDGVDAISEVPSNRWNINNYYDPDPDATGKISTRDGGFLSQIDGFDAPFFCISPREVQSLDPQQRLLLEVSWEAIERANIVPDQLFNSLTGVFIGIGSSDYLNQLATSEVPQAYWGTGNAPSAATGRLSYILGLTGPNLAVETACSSSLVSLHLACQSLRQQECNLALAGGVNLLLSPETSIIFSQAKMLSPDGRCKTFDASANGYVRGEGCGVIVLKRLSDAVANGDNVLAVIRGTAINQDGASGGLTVPNGPSQVAVIRKALSNGGVDPASVSYIEAHGTGTSLGDPIEVGAIGTVFGKTHSQEQPLIVGTAKTNIGHLEVAAGIAGLMKVVLQLQHQQIAPSLHFKQPNPYINWSQLPVQVSTQLTPWQTNGKSRIAGVSSFGFSGTNAHVVIEEAPKEGNSLSATVEENGNSTVKEDTLERAVYLLTLSAKTQAALDDLVNSYQNYLKNYPELRIADICYTANTCRSHFNNRLAVVASNQQELVEKLRQHQQGEEVTGIYSIELPNNSTAPKIALLFTGQGSQYVNMGRQLYQQAPVFRKALEQCNEILLGTETFREKSLLEILYPANQEQSNSSLLDQTAYTQPCLFALEYALFKLWQSWGIQPDVVMGHSVGEYVAATVAGVFSLEEGLKLIAARGRLMQQLPAGGEMVSVIASESKVLEIFKAMSLEEKVAIAAINGPESTVISGEAEAVGAIATHLESLSIKTKQLQVSHAFHSRLMEPMLAEFEAVAKQVTYSQPQISLISNVTGQQVGSEITSAEYWVNHVRQPVRFSESMTTLHQEGYELFLEIGPKPILLGMGRQCLPEGVGVWLPSLRPGVEAWQQMLQSLGQLYMKGIKVNWSGFDQDYACHKVAIPTYPFQRESYWIDT
For B1, the Kd [2] was 4.5 µM and the “stoichiometry N” value (crystal structure) was 2.

B2: CurG-CurH ^ACPddG-G3SG3S-ddH^KS (other, Moorea producens)
chain: LEAKLLDEIKQSSNQELESSIDQILESIINGGGSGGGSMLNKFTKKEQILSEKQQIKQLSPLQRAALALKKLETKLNNTLHE
For B2, the “stoichiometry N” value [12] was 2.
